Data: patent publication US20230192845A1 (BLINK BIOMEDICAL, published 2023)

T1: human CD96 short isoform v2 expressed on CHO cells (human, UniProt P40200 22-585)
T1 construct: also called hCD96v2; CD96v2; not shown: C-terminal HA-tag
T1 sequence: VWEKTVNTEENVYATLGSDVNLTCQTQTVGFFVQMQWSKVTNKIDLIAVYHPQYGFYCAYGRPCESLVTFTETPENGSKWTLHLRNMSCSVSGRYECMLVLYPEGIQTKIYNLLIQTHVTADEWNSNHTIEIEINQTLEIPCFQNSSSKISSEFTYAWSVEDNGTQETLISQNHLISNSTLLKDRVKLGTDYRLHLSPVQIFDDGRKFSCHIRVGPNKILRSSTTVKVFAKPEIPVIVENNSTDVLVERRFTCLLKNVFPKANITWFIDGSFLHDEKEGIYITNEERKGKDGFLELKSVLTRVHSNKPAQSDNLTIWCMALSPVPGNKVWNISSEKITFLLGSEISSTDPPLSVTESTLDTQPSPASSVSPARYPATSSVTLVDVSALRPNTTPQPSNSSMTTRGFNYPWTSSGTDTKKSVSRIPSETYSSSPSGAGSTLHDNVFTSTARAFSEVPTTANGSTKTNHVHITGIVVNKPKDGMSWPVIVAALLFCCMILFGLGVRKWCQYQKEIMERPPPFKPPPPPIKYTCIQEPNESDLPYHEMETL

T2: mouse CD96 expressed on CHO cells (mouse, UniProt Q3U0X8 22-602)
T2 construct: whole, on cells; also called mCD96
T2 sequence (looked up): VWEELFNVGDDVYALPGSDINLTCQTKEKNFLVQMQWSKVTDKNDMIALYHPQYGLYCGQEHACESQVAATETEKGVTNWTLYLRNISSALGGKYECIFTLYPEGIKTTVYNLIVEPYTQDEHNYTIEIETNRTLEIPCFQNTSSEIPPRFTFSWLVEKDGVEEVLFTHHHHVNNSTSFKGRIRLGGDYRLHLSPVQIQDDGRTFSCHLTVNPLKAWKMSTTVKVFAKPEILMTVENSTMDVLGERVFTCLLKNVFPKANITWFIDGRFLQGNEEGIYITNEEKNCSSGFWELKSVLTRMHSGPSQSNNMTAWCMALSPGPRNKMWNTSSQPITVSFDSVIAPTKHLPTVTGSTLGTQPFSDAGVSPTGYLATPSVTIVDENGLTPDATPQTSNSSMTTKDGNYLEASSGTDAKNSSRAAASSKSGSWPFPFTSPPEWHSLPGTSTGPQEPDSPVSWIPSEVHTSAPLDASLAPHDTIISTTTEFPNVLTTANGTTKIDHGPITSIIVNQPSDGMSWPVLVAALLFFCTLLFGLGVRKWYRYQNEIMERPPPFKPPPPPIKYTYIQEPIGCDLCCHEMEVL

T3: rhesus CD96 transiently expressed on CHO cells (rhesus, UniProt P40200 22-585 (human entry))
T3 construct: also called rhesus CD96, short isoform
T3 chain: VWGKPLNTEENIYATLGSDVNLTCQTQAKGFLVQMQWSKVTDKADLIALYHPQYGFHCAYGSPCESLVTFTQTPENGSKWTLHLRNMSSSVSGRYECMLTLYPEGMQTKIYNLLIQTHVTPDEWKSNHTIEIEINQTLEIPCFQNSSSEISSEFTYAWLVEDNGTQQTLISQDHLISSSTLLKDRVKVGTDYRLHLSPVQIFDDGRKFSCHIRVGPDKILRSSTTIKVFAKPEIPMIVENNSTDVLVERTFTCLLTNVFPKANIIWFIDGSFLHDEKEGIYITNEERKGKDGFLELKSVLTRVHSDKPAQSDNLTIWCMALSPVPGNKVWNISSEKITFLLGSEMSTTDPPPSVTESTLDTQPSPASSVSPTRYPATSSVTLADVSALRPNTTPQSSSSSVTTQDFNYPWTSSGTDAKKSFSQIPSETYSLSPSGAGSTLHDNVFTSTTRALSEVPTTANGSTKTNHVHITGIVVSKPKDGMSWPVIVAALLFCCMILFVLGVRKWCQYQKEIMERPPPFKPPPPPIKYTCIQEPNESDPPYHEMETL

B1: BL006-19-190G4-190K6 (antibody, V domains shown)
VH: EVQLVESGGGLVQPGGSLKLSCAASGFTFSNYGMSWVRQTPDKRLELVATINSNGGSTYYPDSVKGRFTISRDNAKNTLYLQMSSLKSEDTAMYYCTKRGAWYFDVWGTGTTVTVSS
VL: DIQMTQSSSSFSVSLGDRVTITCKASEDIYNRLAWYQQKPGNAPRLLISSATSLETGVSSRFSGSGSGKDYTLSITSLQTEDVATYYCQQYWTTPTWTFGGGTKLEIK
notes: Recombinant mIgG2a/kappa (also made as mIgG2a-D265A); also called candidate NO 16
B2: BL006-19-21G1-21K1 (antibody, V domains shown)
VH: QVQLQQPGAELVKPGASVKMSCKASGYTFISYWITWVKQRPGQGLEWIGDIYPGSGHTNYNEKFKSKATLTVDTSSSTAYMQLSSLTSEDSAVYYCARPTVEAMDYWGQGTSVTVSS
VL: QIVLTQSPAIMSASPGEKVTMTCSASSSVNYMHWYQQRSGTSPKRWIYDTSKLASGVPARFSGSGSGTSYSLTISSMEAEDAATYYCQQWSNNPLTFGAGTKLELK
notes: Recombinant mIgG2a/kappa (also made as mIgG2a-D265A); also called candidate NO 13
B3: BL006-9-1G1-1K1 (antibody, V domains shown)
VH: EVKLVESGGGLVKPGGSLKLSCAASGFTFSSYAMSWVRQTPERGLEWVAAIQSNGGSTFYPDTVKDRFTISRDNAKNTLYLQMSSLRSEDTALYYCVRGPFDYWGQGTTLTVSS
VL: QIVLTQSPAIMSASPGQKVTIPCSASSSVNYIHWFQQKLGSSPKLWIYDTSKLTPGVPARFSGSGSGTSYSLTISSMEAEDAASYFCHQWRSYPPTFGGGTKLEIK
notes: Recombinant mIgG2a/kappa (also made as mIgG2a-D265A); also called candidate NO 11
B4: BL006-19-55G10-55K7 (antibody, V domains shown)
VH: QVQLQQSGAEVVRPGTSVKMSCKAAGYTFTDNWIDWVKQRPGHGLDWIGNIFPGGNYTNYNEKFKGKATLTADTSSSTAYMQLINLTSEDSAIYYCVRAVADSQFAYWGQGTLVTVSA
VL: QIVLTQSPAIMSVSPGEKVTMTCSASSRVTYMYWYQQKPGSSPKPWIYRTSNLASGVPVRFSGSGSGTSYSLTISSMEAEDAATYYCQQWSSNPLTFGAGTKLELK
notes: Recombinant mIgG2a/kappa (also made as mIgG2a-D265A); also called candidate NO 15
B5: BL006-4-61G5-61K1 (antibody, V domains shown)
VH: EVKLEESGGGLVQPGGSMKLSCVASGFTFSNYWMNWVRQSPEKGLEWVAQIRFKSDNYATHYAESVKGRFTISRDDSKSSVYLQMHNLRAEDTGIYYCTEFAYWGQGTLVTVSA
VL: QILLTQSPAIMSASPGEKVTMTCSASSRVNSRFLNWYQQKSGVSPKLWIYGTSNLASGVPARFSGSGSGTSYSLTISSVEAEDVATYYCQQYQSDPPITFGAGTRLELI
notes: Recombinant mIgG2a/kappa (also made as mIgG2a-D265A); also called BL006-4-61G5-61K1 #7; candidate NO 3
B6: BL006-11-5G1-5K3 (antibody, V domains shown)
VH: EVQLVESGGGLVKPGGSLKLSCAASGFTFSSYAMSWVRQTPEKRLEWVAAINTDGASTYFPATVKDRFTISRDNAKNTLYLQMSSLRSEDTALYYCARPLEPGSWFAYWGQGTLVTVSA
VL: DVLMTQTPLSLPVSLGDQASISCRSSQSIVHSNGNTYLEWYLQKPGQSPKVLIYKVSNRFSGVPDRISGSGSGTDFTLKISRVEAGDLGVYYCFQGSHVPYTFGGGTKLEIK
notes: Recombinant mIgG2a/kappa (also made as mIgG2a-D265A); also called BL006-11-5G1-5K3 #5; candidate NO 5
B7: BL006-19-183G3-183K4 (antibody, V domains shown)
VH: QVTLNESGPGILQPSQTLSLTCSFSGFSLTTYGMGVGWIRQPSGKSLEWLANIWWTEDKYYNSALKSRLTISTDTSHNQVFLKISSVDTEDTATYYCAQMGPEVYSAMDYWGQGTSVTVSS
VL: DIVMTPSQKFMSTTVGDRVSITCKASQNVGTAVAWYQQKPGHSPKLLIYSASNRNTGVPDRFTGSGSGTDFTLTISNMQSEDLADYFCHQYSRYPWTFGGGTKLEIK
notes: Recombinant mIgG2a/kappa (also made as mIgG2a-D265A); also called BL006-19-183G3-183K4 #3; candidate NO 8

Key:
[1] = molecular target: T1, human CD96 short isoform v2 expressed …; test: FCM on hCD96v2-CHO cells
Experimental: FIG. 6: Binding profiles of anti-hCD96 antibodies on human CD96-transfected CHO cells (hCD96v2, short isoform). CHO cells expressing hCD96v2 were incubated with serial dilution of the indicated mIgG1 or mIgG2a anti-CD96 or isotype control antibodies. […] The results are expressed as the difference of mean fluorescence intensity (delta MFI) between cells stained with antibodies and cells without antibodies. Dose response curves were obtained from GraphPad prism software using a non-linear regression fit with a variable slope model (4 parameters). To simplify the reading, results from the various anti-hCD96 candidates are shown on 4 different panels.
The capacity of the identified mouse anti-CD96 antibodies to recognize the cell membrane expressed human CD96 was further analyzed by flow cytometry (FCM) by using CHO cells stably transfected with the CD96 short isoform v2 (CD96v2; Genbank accession number NM_005816, flanked in C-terminus with HA-tag) (SEQ ID NO: 268).
Mouse anti-CD96 antibodies and isotype control antibodies were incubated at various concentrations from 10 μg/mL to 4.6 ng/mL with CHO cells expressing human CD96 at +4° C. for 30 minutes. […] The differences between the mean fluorescence intensity (MFI) obtained for each of the antibody concentration and the intensity obtained in absence of primary antibody (delta-MFI), were calculated and plotted against the concentrations of antibodies.

[2] = molecular target: T2, mouse CD96 expressed on CHO cells; test: FCM on CHO cells expressing mouse CD96
From the text: (§1) The capacity of the identified mouse anti-human CD96 antibodies to recognize the CD96 protein from other species was further analyzed by flow cytometry by using CHO cells expressing the mouse or the rhesus CD96. The expression of the species-specific CD96 on CHO cell surface was confirmed by using staining with appropriate anti-CD96 antibodies and flow cytometry on non-fixed cells. The rat anti-mCD96 antibody clone #630612 (R&D Systems) and the candidate BL006-9-1 (positive by ELISA on rhesus CD96) were used to confirm the expression of rhesus CD96, while the clone 6A6 (rat IgG2a, e-Bioscience) was used to verify the expression of mouse CD96.
(§2) Mouse anti-CD96 antibodies and isotype control antibodies were incubated at 10 or 1 μg/mL with CHO cells expressing different CD96 species at +4° C. for 30 minutes.

[3] = molecular target: T1, human CD96 short isoform v2 expressed …; test: FCM, inhibition of hCD155-Fc binding to hCD96v2-CHO cells
Experimental: All candidates except BL006-2-19 that bound very weakly on hCD96v2 by FCM were tested for their capacity to inhibit the binding of human CD155 to hCD96v2 stably expressed on CHO cells. Human CD96-transfected CHO cells (3×10⁵ cells/well of 96-well plate) were incubated at +4° C. for 30 minutes with serial dilutions of anti-CD96 antibodies or isotype control antibody (in mIgG2a or mIgG2aD265A format) in the presence of 4 μg/mL of biotinylated hCD155-Fc (produced and biotinylated at BliNK).
% inhibition=(1−(MFI_wAb&CD155−MFI_CHO)/(MFI_wCD155−MFI_CHO))×100, where MFI_wAb&CD155 is the Mean Intensity Fluorescence (MFI) obtained with the hCD96-CHO cells incubated with the tested antibody and hCD155-hFc; MFI_CHO is the MFI obtained in the absence of hCD155 and mAbs; and MFI_wCD155 is the fluorescence with hCD155 but without pre-incubation with antibody (0% CD155 binding inhibition). The % of inhibition was plotted against antibody concentration and the IC50 values were calculated by using a nonlinear regression analysis model of the GraphPad Prism software.

[4] = molecular target: T3, rhesus CD96 transiently expressed on …; test: flow cytometry on CHO cells transiently expressing rhesus CD96; antibody at 1 (thin line) and 10 µg/ml (thick dashed line), filled grey = isotype control
Experimental: FIG. 7: Binding profiles of anti-CD96 antibodies on CHO cells transfected with rhesus CD96. Anti-CD96 antibodies or the corresponding isotype control mAbs were tested for their capacity to recognize rhesus CD96 transiently expressed on CHO cells by flow cytometry. Each histogram represents the overlay of the fluorescence intensity obtained for each antibody tested at 1 (black line) and 10 μg/ml (thick dashed black line) and compared to the fluorescence obtained with an isotypic control (filled grey histogram).
as §1, §2

Row | Binder | EC50 [1] | Maximum binding (delta MFI) [1] | binding result [2] | IC50 [3] | Maximal Inhibition Capacity (%) [3] | binding result [4]
1 | B1 | 3.39 nM | 711000 delta MFI | no binding (tested: 1 and 10 µg/mL) | 11.5 nM | 98.1% | no binding (tested: 10 µg/ml)
2 | B2 | 6.53 nM | 599000 delta MFI | no binding (tested: 1 and 10 µg/mL) | 19.4 nM | 100% | binds
3 | B3 | 17.5 nM | 514000 delta MFI | no binding (tested: 1 and 10 µg/mL) | – | < 5% | binds
4 | B4 | 3.3 nM | 636000 delta MFI | no binding (tested: 1 and 10 µg/mL) | 8.84 nM | 98.3% | binds
5 | B5 | 2.05 nM | 330000 delta MFI | no binding (tested: 1 and 10 µg/mL) | – | < 5% | binds
6 | B6 | 12.8 nM | 373000 delta MFI | no binding (tested: 1 and 10 µg/mL) | – | < 5% | no binding (tested: 10 µg/ml)
7 | B7 | 4.56 nM | 681000 delta MFI | no binding (tested: 1 and 10 µg/mL) | 15 nM | 100% | no binding (tested: 10 µg/ml)
